Reference: PMC2946932 (PLoS ONE, 2010)

Target: T1, extracellular domain of human BMP receptor type IA (BMPR-IAEC), wild type (human, UniProt P36894)
T1 construct: numbers count on: the mature protein; In the crystal only Pro34-Val118 were traced; also called BMPR-IA WT; BMPR-IA ectodomain; source: expressed as thioredoxin-fusion protein as described [16], purified
Assay: SPR; Biacore 2000, room temperature; biotinylated BMP-2 and Fabs immobilised on a streptavidin-coated CM5 chip; wildtype or mutant BMPR-IAEC as analyte at 1000, 500, 250, 125, 62.5 nM; HBS500 (10 mM HEPES, 500 mM NaCl pH 7.4, 3.4 mM EDTA, 0.005% surfactant P20), 10 µl/min; 1:1 Langmuir model; apparent KD from equilibrium binding and/or kon and koff
Settings: both partners purified

T1 sequence (P36894 24-152): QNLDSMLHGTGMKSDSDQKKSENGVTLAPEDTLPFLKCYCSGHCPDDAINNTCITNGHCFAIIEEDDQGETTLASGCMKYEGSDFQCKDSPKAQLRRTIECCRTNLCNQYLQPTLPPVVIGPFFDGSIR

B1: Fab AbD1556 (Fab, V domains shown)
VH: QVQLVESGGGLVQPGGSLRLSCAASGFTFSNYTLNWVRQAPGKGLEWVSYTSSSGSLTGYADSVKGRFTISRDNSKNTLYLQMNSLRAEDTAVYYCARERWHVRGYFDHWGQGTLVTVSS
VL: DIELTQPPSVSVAPGQTARISCSGDSLGSKYVIWYQQKPGQAPVLVIYDDSNRPSGIPERFSGSNSGNTATLTISGTQAEDEADYYCSTFTMSGNGTVFGGGTKLTVL
notes: heavy chain of Fab AbD1556 (Gln1 to Phe224, then the Strep-Tag); light chain of Fab AbD1556 (Asp1 to Ala213); Human Fab of the HuCal library; Not biotinylated in the crystal; some residues of PDB 3NH7 are not modelled; source: obtained from AbD-Serotech (Martinsried), recombinant Fab selected from the HuCal phage library
Kd: 20 nM
koff: 0.0017 s⁻¹
kon: 88000 M⁻¹ s⁻¹
